Experimental data taken from US20260265329A1, “POLYPEPTIDE AND DERIVATIVE THEREOF, COMPOSITION, AND USE THEREOF” (HANGZHOU SCIWIND BIOSCIENCES CO., LTD., priority 2023, published 2026).
Starred links: 1 amine or outer side, 2 acyl side, 3 side chain; linkers in the order of their positions; H or OH if unused. Non-standard residues stand in square brackets, D forms with d. Residues, ends and D or L forms follow the SMILES beside them. Primed or numbered codes have the meaning given here. *: point of attachment. C20 diacid = O=C(O)CCCCCCCCCCCCCCCCCCC(=O)*; γGlu = O=C(O)[C@H](CCC(=O)[*:2])N[*:1]; βAsp = O=C(O)[C@H](CC(=O)[*:2])N[*:1]; Hyp = O=C(O)[C@@H]1C[C@@H](O)CN1; Inp′ = not defined here; Trx′ = not defined here; AEEA = NCCOCCOCC(=O)O

T1: human amylin receptors (Homo sapiens, UniProt O60896+P30988)
T1 construct: host or cells: CHO-K1/Ga15/AMY3 cells, further stably transfected with a CRE-luciferase plasmid
T1 sequence (P30988 25-474): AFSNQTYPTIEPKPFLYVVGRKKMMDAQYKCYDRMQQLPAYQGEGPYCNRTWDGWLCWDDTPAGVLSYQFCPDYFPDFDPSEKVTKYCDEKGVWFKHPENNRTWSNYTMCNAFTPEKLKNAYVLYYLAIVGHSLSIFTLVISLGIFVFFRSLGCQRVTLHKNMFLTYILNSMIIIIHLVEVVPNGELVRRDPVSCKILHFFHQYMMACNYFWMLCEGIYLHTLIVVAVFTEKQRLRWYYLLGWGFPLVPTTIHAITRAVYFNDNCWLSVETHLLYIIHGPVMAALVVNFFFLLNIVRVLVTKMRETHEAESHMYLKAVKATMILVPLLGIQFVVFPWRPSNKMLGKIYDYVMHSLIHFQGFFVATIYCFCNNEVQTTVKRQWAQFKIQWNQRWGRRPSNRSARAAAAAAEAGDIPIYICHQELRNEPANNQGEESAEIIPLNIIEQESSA
T1 sequence (O60896 24-148 partner): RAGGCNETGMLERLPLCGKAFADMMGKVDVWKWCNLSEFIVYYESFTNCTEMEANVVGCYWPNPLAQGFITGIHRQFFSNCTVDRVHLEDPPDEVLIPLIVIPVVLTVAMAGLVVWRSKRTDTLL

T2: human amylin receptor on CHO-K1/Ga15/AMY3 cells (amylin receptor/CRE-luc cell line) (human) (UniProt P30988)
T2 sequence (looked up) 1: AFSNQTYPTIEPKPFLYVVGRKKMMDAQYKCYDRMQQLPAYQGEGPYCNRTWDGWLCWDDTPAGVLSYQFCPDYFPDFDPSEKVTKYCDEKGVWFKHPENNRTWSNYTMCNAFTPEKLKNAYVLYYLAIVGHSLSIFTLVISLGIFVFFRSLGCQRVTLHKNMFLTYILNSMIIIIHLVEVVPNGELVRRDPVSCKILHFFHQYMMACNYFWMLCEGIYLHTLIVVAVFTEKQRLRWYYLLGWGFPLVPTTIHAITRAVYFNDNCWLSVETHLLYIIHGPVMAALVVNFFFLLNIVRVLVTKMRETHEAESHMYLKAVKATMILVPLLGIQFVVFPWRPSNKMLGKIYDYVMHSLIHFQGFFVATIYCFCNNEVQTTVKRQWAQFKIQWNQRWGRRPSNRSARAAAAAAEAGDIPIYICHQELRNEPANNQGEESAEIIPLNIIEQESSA
T2 sequence (looked up) 2: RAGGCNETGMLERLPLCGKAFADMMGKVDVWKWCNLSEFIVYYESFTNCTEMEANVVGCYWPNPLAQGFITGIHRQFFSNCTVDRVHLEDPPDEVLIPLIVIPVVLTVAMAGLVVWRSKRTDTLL

B1: M27 (peptide)
peptide: {C20 diacid-βAsp}-ASQLSTAATQRLADFLRHSSNNLKPILPPTNVGSNT[Hyp]-NH2
SMILES: CC[C@H](C)[C@H](NC(=O)[C@@H]1CCCN1C(=O)[C@H](CCCCN)NC(=O)[C@H](CC(C)C)NC(=O)[C@H](CC(N)=O)NC(=O)[C@H](CC(N)=O)NC(=O)[C@H](CO)NC(=O)[C@H](CO)NC(=O)[C@H](Cc1c[nH]cn1)NC(=O)[C@H](CCCNC(=N)N)NC(=O)[C@H](CC(C)C)NC(=O)[C@H](Cc1ccccc1)NC(=O)[C@H](CC(=O)O)NC(=O)[C@H](C)NC(=O)[C@H](CC(C)C)NC(=O)[C@H](CCCNC(=N)N)NC(=O)[C@H](CCC(N)=O)NC(=O)[C@@H](NC(=O)[C@H](C)NC(=O)[C@H](C)NC(=O)[C@@H](NC(=O)[C@H](CO)NC(=O)[C@H](CC(C)C)NC(=O)[C@H](CCC(N)=O)NC(=O)[C@H](CO)NC(=O)[C@H](C)NC(=O)C[C@H](NC(=O)CCCCCCCCCCCCCCCCCCC(=O)O)C(=O)O)[C@@H](C)O)[C@@H](C)O)C(=O)N[C@@H](CC(C)C)C(=O)N1CCC[C@H]1C(=O)N1CCC[C@H]1C(=O)N[C@H](C(=O)N[C@@H](CC(N)=O)C(=O)N[C@H](C(=O)NCC(=O)N[C@@H](CO)C(=O)N[C@@H](CC(N)=O)C(=O)N[C@H](C(=O)N1C[C@H](O)C[C@H]1C(N)=O)[C@@H](C)O)C(C)C)[C@@H](C)O
B2: M28 (peptide)
peptide: {C20 diacid}-DASQLSTAATQRLADFLRHSSNNLKPILPPTNVGSNT[Hyp]-NH2
SMILES: CC[C@H](C)[C@H](NC(=O)[C@@H]1CCCN1C(=O)[C@H](CCCCN)NC(=O)[C@H](CC(C)C)NC(=O)[C@H](CC(N)=O)NC(=O)[C@H](CC(N)=O)NC(=O)[C@H](CO)NC(=O)[C@H](CO)NC(=O)[C@H](Cc1c[nH]cn1)NC(=O)[C@H](CCCNC(=N)N)NC(=O)[C@H](CC(C)C)NC(=O)[C@H](Cc1ccccc1)NC(=O)[C@H](CC(=O)O)NC(=O)[C@H](C)NC(=O)[C@H](CC(C)C)NC(=O)[C@H](CCCNC(=N)N)NC(=O)[C@H](CCC(N)=O)NC(=O)[C@@H](NC(=O)[C@H](C)NC(=O)[C@H](C)NC(=O)[C@@H](NC(=O)[C@H](CO)NC(=O)[C@H](CC(C)C)NC(=O)[C@H](CCC(N)=O)NC(=O)[C@H](CO)NC(=O)[C@H](C)NC(=O)[C@H](CC(=O)O)NC(=O)CCCCCCCCCCCCCCCCCCC(=O)O)[C@@H](C)O)[C@@H](C)O)C(=O)N[C@@H](CC(C)C)C(=O)N1CCC[C@H]1C(=O)N1CCC[C@H]1C(=O)N[C@H](C(=O)N[C@@H](CC(N)=O)C(=O)N[C@H](C(=O)NCC(=O)N[C@@H](CO)C(=O)N[C@@H](CC(N)=O)C(=O)N[C@H](C(=O)N1C[C@H](O)C[C@H]1C(N)=O)[C@@H](C)O)C(C)C)[C@@H](C)O
B3: M26 (peptide)
peptide: {C20 diacid}-EASQLSTAATQRLADFLRHSSNNLKPILPPTNVGSNT[Hyp]-NH2
SMILES: CC[C@H](C)[C@H](NC(=O)[C@@H]1CCCN1C(=O)[C@H](CCCCN)NC(=O)[C@H](CC(C)C)NC(=O)[C@H](CC(N)=O)NC(=O)[C@H](CC(N)=O)NC(=O)[C@H](CO)NC(=O)[C@H](CO)NC(=O)[C@H](Cc1c[nH]cn1)NC(=O)[C@H](CCCNC(=N)N)NC(=O)[C@H](CC(C)C)NC(=O)[C@H](Cc1ccccc1)NC(=O)[C@H](CC(=O)O)NC(=O)[C@H](C)NC(=O)[C@H](CC(C)C)NC(=O)[C@H](CCCNC(=N)N)NC(=O)[C@H](CCC(N)=O)NC(=O)[C@@H](NC(=O)[C@H](C)NC(=O)[C@H](C)NC(=O)[C@@H](NC(=O)[C@H](CO)NC(=O)[C@H](CC(C)C)NC(=O)[C@H](CCC(N)=O)NC(=O)[C@H](CO)NC(=O)[C@H](C)NC(=O)[C@H](CCC(=O)O)NC(=O)CCCCCCCCCCCCCCCCCCC(=O)O)[C@@H](C)O)[C@@H](C)O)C(=O)N[C@@H](CC(C)C)C(=O)N1CCC[C@H]1C(=O)N1CCC[C@H]1C(=O)N[C@H](C(=O)N[C@@H](CC(N)=O)C(=O)N[C@H](C(=O)NCC(=O)N[C@@H](CO)C(=O)N[C@@H](CC(N)=O)C(=O)N[C@H](C(=O)N1C[C@H](O)C[C@H]1C(N)=O)[C@@H](C)O)C(C)C)[C@@H](C)O
B4: M31 (peptide)
peptide: {C20 diacid-γGlu-AEEA-AEEA}-ASQLSTAATQRLADFLRHSSNNLKPILPPTNVGSNT[Hyp]-NH2
SMILES: CC[C@H](C)[C@H](NC(=O)[C@@H]1CCCN1C(=O)[C@H](CCCCN)NC(=O)[C@H](CC(C)C)NC(=O)[C@H](CC(N)=O)NC(=O)[C@H](CC(N)=O)NC(=O)[C@H](CO)NC(=O)[C@H](CO)NC(=O)[C@H](Cc1c[nH]cn1)NC(=O)[C@H](CCCNC(=N)N)NC(=O)[C@H](CC(C)C)NC(=O)[C@H](Cc1ccccc1)NC(=O)[C@H](CC(=O)O)NC(=O)[C@H](C)NC(=O)[C@H](CC(C)C)NC(=O)[C@H](CCCNC(=N)N)NC(=O)[C@H](CCC(N)=O)NC(=O)[C@@H](NC(=O)[C@H](C)NC(=O)[C@H](C)NC(=O)[C@@H](NC(=O)[C@H](CO)NC(=O)[C@H](CC(C)C)NC(=O)[C@H](CCC(N)=O)NC(=O)[C@H](CO)NC(=O)[C@H](C)NC(=O)COCCOCCNC(=O)COCCOCCNC(=O)CC[C@H](NC(=O)CCCCCCCCCCCCCCCCCCC(=O)O)C(=O)O)[C@@H](C)O)[C@@H](C)O)C(=O)N[C@@H](CC(C)C)C(=O)N1CCC[C@H]1C(=O)N1CCC[C@H]1C(=O)N[C@H](C(=O)N[C@@H](CC(N)=O)C(=O)N[C@H](C(=O)NCC(=O)N[C@@H](CO)C(=O)N[C@@H](CC(N)=O)C(=O)N[C@H](C(=O)N1C[C@H](O)C[C@H]1C(N)=O)[C@@H](C)O)C(C)C)[C@@H](C)O

Assays:
human amylin receptors = target: T1, human amylin receptors; assay: Luciferase assay in stably transfected amylin receptor/CRE-luc CHO cell line; assay type: cell-based
[1] = Heat accelerated stability assay, 40° C., detection on 7 d and 28 d; assay type: physicochemical
Method: The derivatives (1 mg/mL) were mixed with sodium dihydrogen phosphate (1.42 mg/mL) and dissolved in ultrapure water. After adjusting pH to about 7.4 with hydrochloric acid/sodium hydroxide, the solution was filtered into a sterilized vial in a clean bench using a 0.22 μm sterile filter. The vial was then capped and placed into the stability test chamber at 40° C. Detections were made on Days 7 (7d) and 28 (28d), and during the assay, changes in the characteristics and properties of the polypeptides were observed and recorded. The sample was then centrifuged for 3 min at 10000 rpm at 4° C., and the supernatant was transferred to a liquid phase sample vial for detecting the concentration and purity of the polypeptides using liquid phase chromatography described as below.
Conditions of the reversed phase chromatography Flow rate: 1.0 mL/min; Autosampler temperature: 15° C.; Column temperature: 25° C.; Detection wavelength: 214 nm; Mobile phase A: 100% H2O+0.05% TFA; Mobile phase B: 100% ACN; and Gradient of elution listed in Table 4: […]

[2] = target: T2, human amylin receptor on CHO-K1/Ga15/AMY3 cells (amylin receptor/CRE-luc cell line) (human); assay: cell-based or functional assay

Molecule | EC50 (luciferase assay, amylin receptor/CRE-luc CHO cells) [2] | Relative activity (the EC50 ratio of Cagrilintide to the compound) [2] | also measured
CC[C@H](C)[C@H](NC(=O)[C@@H]1CCCN1C(=O)[C@H](CCCCN)NC(=O)[C@H](CC(C)C)NC(=O)[C@H](CC(N)=O)NC(=O)[C@H](CC(N)=O)NC(=O)[C@H](CO)NC(=O)[C@H](CO)NC(=O)[C@H](Cc1c[nH]cn1)NC(=O)[C@H](CCCNC(=N)N)NC(=O)[C@H](CC(C)C)NC(=O)[C@H](Cc1ccccc1)NC(=O)[C@H](CC(=O)O)NC(=O)[C@H](C)NC(=O)[C@H](CC(C)C)NC(=O)[C@H](CCCNC(=N)N)NC(=O)[C@H](CCC(N)=O)NC(=O)[C@@H](NC(=O)[C@H](C)NC(=O)[C@H](C)NC(=O)[C@@H](NC(=O)[C@H](CO)NC(=O)[C@H](CC(C)C)NC(=O)[C@H](CCC(N)=O)NC(=O)[C@H](CO)NC(=O)[C@H](C)NC(=O)CC[C@H](NC(=O)CCCCCCCCCCCCCCCCCCC(=O)O)C(=O)O)[C@@H](C)O)[C@@H](C)O)C(=O)N[C@@H](CC(C)C)C(=O)N1CCC[C@H]1C(=O)N1CCC[C@H]1C(=O)N[C@H](C(=O)N[C@@H](CC(N)=O)C(=O)N[C@H](C(=O)NCC(=O)N[C@@H](CO)C(=O)N[C@@H](CC(N)=O)C(=O)N[C@H](C(=O)N1C[C@H](O)C[C@H]1C(N)=O)[C@@H](C)O)C(C)C)[C@@H](C)O [M5] ({C20 diacid-γGlu}-ASQLSTAATQRLADFLRHSSNNLKPILPPTNVGSNT[Hyp]-NH2) | – | – | Relative activity (human amylin receptors; EC50 ratio of Cagrilintide to the compound, Cagrilintide 100%): 84%; EC50 (human amylin receptors; amylin receptor/CRE-luc CHO cells, 24 hours incubation, luminescence): 0.031 nM; Purity from the reversed phase chromatography-214 nm, 0 d ([1]; 1 mg/mL, pH about 7.4, 40° C., 0 d): 92.36; Purity from the reversed phase chromatography-214 nm, 7 d ([1]; 1 mg/mL, pH about 7.4, 40° C., 7 d): 91.35; Purity from the reversed phase chromatography-214 nm, 28 d ([1]; 1 mg/mL, pH about 7.4, 40° C., 28 d): 91.34; Change (7 d − 0 d) ([1]; purity on 7 d − purity on 0 d, 40° C., pH about 7.4): −1.01; Change (28 d − 0 d) ([1]; purity on 28 d − purity on 0 d, 40° C., pH about 7.4): −1.02
B1 | 0.064 nM | 78% | –
{C20 diacid-Inp′}-ASQLSTAATQRLADFLRHSSNNLKPILPPTNVGSNT[Hyp]-NH2 [M30] | 0.039 nM | 130% | –
B2 | 0.039 nM | 128% | –
B3 | 0.049 nM | 103% | –
B4 | 0.168 nM | 30% | –
{C20 diacid-Trx′}-ASQLSTAATQRLADFLRHSSNNLKPILPPTNVGSNT[Hyp]-NH2 (reading uncertain) [M29] | 0.122 nM | 412% | –
